{"source": "paper PMC4786922", "tested_on": "S1 zinc finger array (six-finger designed ZF) (artificial (designed))", "test": "EMSA", "details": "EMSA: ZBA buffer (composition not given), 0.05% NP-40, 0.1 mg/ml BSA, 10% glycerol, 35-75 pM target, 1.5 h at room temperature; pH not given", "note": "pKd: −log10 of the molar value.", "data": [{"sequence": "CCTCTTCGCTATTACGCCAGCCATGCGTAGGGAGCCGCGGAACGTTCGATCGTACTCGAGTCAGGGTG (double strand) [S1 target site EMSA probe]", "values": [{"measurement": "pKd", "result": 8.30}]}]}
